The source of these data is PMC6443961, “Von Willebrand Factor Mediates Pneumococcal Aggregation and Adhesion in Blood Flow” (Frontiers in Microbiology, 2019).

The target of assay [1] is recombinant enolase of S. pneumoniae serotype 2 (ATCC 11733) (Streptococcus pneumoniae serotype 2 (ATCC 11733)) (UniProt Q97QS2). The assay can be described thus: SPR; rEno immobilised by amine coupling on CM5 chip (BIAcore T200), VWF or A domains as analyte, PBS pH 7.4 with 0.05% Tween 20, 25°C, 10 μl/min, 1:1 Langmuir model. On the technique in general: SPR reads the build-up and loss of mass on a sensor chip optically.

Assay [2] has as its target recombinant enolase protein (rEno) of S. pneumoniae serotype 2 (ATCC 11733) (Streptococcus pneumoniae serotype 2 (ATCC 11733)) (UniProt Q04KG2). Description: SPR; rEno immobilised by amine coupling on CM5 chips (BIAcore T200); PBS pH 7.4 with 0.05% Tween 20, 25°C, 10 µl/min; analytes plasma VWF 0.625-10.0 µg/ml or VWF A1 domain 0.0612-1.0 µg/ml; 1:1 Langmuir model; values of the single independent kinetic runs.

Assay [3] deals with T1, human plasma von Willebrand factor (human, UniProt P04275 764-2813).
T1 construct: von Willebrand factor, human, derived from plasma; called 'full length VWF' in the SPR methods, as against the single A domains; Glycoprotein from plasma that circulates as multimers; also called VWF; plasma VWF; source: bought: Merck Chemicals (human plasma VWF)
Description: peptide or protein array; 141 overlapping 15mer peptides of enolase (offset three) on cellulose membrane, overlay with 2.0 μg/ml VWF, detected with anti-VWF antibody. The conditions noted are these: both partners purified.

Several values for one entry are separate records, joined by “and”; a condition that tells them apart may be missing. Identical values can stand only once.

Sequence of recombinant enolase protein (rEno) of S. pneumoniae serotype 2 (ATCC 11733) (Streptococcus pneumoniae serotype 2 (ATCC 11733)) (Q04KG2 whole entry, the tested form may be a part): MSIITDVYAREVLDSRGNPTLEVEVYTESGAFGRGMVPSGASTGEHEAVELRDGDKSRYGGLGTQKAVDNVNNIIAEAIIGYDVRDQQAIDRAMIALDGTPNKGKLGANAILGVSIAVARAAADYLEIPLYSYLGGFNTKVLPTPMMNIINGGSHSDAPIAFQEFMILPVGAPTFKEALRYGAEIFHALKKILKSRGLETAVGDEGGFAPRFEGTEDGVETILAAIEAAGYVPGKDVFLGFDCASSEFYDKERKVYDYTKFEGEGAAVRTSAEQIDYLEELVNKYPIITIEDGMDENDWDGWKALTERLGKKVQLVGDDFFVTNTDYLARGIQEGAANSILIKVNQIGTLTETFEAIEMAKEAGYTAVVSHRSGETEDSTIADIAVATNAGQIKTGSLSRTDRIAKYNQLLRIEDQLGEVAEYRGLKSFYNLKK
Sequence of recombinant enolase of S. pneumoniae serotype 2 (ATCC 11733) (Streptococcus pneumoniae serotype 2 (ATCC 11733)) (Q97QS2 whole entry): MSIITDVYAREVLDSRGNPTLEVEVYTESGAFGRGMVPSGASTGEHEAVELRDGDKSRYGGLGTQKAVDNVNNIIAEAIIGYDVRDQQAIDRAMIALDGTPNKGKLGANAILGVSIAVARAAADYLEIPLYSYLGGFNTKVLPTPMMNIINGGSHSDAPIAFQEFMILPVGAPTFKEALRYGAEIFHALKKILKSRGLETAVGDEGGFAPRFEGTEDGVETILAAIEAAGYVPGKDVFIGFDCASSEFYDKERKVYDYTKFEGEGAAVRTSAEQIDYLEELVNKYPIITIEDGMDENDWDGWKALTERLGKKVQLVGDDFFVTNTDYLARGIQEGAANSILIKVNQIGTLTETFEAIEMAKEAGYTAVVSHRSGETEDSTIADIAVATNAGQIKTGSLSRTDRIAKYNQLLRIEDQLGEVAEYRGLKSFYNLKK

Broadly, the Kd is the concentration at which binding is half-saturated. As for “recombinant VWF domain A1 (domain or fragment)”, the Kd in assay [1] stood at 0.208 nM.
One may read the koff as the first-order rate constant of dissociation. Consider “recombinant VWF domain A1 (from UniProt P04275 23-2813) (domain or fragment)”, for which, in assay [2], the Kd was 2.18 nM and 1.79 nM and 0.585 nM; the koff is 0.00126 s⁻¹ and 0.00175 s⁻¹ and 0.0013 s⁻¹.

B1: enolase peptide 181YGAEIFHALKKILKS195 (peptide)
peptide: YGAEIFHALKKILKS
notes: residues 181-195 of the enolase of S. pneumoniae; one 15mer of the peptide spot array; Synthesised as a spot and held on the cellulose membrane; also called core peptide of region no; source: synthetic peptide, spot on an amino pegylated cellulose membrane
For B1, the binding result in assay [3] is “binds”.
